This experiment concerns the target T1, Drosophila GOLPH3, GST removed (ligand of the SPR experiment) (Drosophila melanogaster, UniProt Q9VQ93 1-294).
T1 construct: Drosophila melanogaster GOLPH3 (CG7085, sauron), polypeptide of 293 amino acids, full-length cDNA in pGEX-6p-2; A few vector residues probably remain at the N-terminus after PreScission cleavage; also called dGOLPH3; source: E. coli BL21-CodonPlus [DE3], purified as GST fusion, GST cleaved off with PreScission Protease; not shown: GST, N-terminal, cleaved
Nature of the experiment: SPR; BIACORE X, GOLPH3 immobilised on CM5 chip by amine coupling (about 1200 RU); Rab11 analyte 50 nM to 10.0 µM in 10 mM Hepes pH 7.4, 150 mM NaCl, 0.005% surfactant P20, 30 µl/min. Conditions: both partners purified. On the technique in general: In SPR one partner is held on a chip, and binding of the other changes the refractive index at the surface.

Several values for one entry are separate records, joined by “and”; a condition that tells them apart may be missing. Equal entries are not always repeated.

T1 sequence (Q9VQ93 whole entry, the tested form may be a part): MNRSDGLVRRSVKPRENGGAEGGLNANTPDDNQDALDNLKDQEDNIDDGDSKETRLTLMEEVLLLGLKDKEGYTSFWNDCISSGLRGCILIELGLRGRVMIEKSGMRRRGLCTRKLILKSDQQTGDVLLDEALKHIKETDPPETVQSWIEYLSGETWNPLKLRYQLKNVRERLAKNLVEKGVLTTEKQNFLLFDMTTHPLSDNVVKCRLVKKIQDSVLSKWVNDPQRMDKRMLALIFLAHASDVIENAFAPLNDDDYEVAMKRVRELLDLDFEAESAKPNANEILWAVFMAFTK

B1: Drosophila Rab11, GST removed (analyte of the SPR experiment) (natural protein, UniProt O18335 1-214, looked up)
chain: MGAREDEYDYLFKVVLIGDSGVGKSNLLSRFTRNEFNLESKSTIGVEFATRSIEVDGKTIKAQIWDTAGQERYRAITSAYYRGAVGALLVYDIAKHLTYENVERWLRELRDHADQNIVIMLVGNKSDLRHLRSVPTDEAKLFAERNGLSFIETSALDSTNVETAFQNILTEIYRIVSQKQIRDPPEGDVIRPSNVEPIDVKPTVTADVRKQCCQ
notes: Drosophila Rab11, full-length, made as GST fusion; source: E. coli BL21-CodonPlus [DE3], purified as GST fusion, GST cleaved off with PreScission Protease
By Kd is commonly meant the constant that tells how readily two partners part at equilibrium. The koff is the first-order rate constant of dissociation. As for B1, the dissociation constant Kd came out at 180 nM; the koff is ~0.0002 s⁻¹ and ~0.0001 s⁻¹.

(Values after paper PMC4006750, “GOLPH3 Is Essential for Contractile Ring Formation and Rab11 Localization to the Cleavage Site during Cytokinesis in Drosophila melanogaster” (PLoS Genetics, 2014).)
